Results on one molecule are retold here after patent US20060073152A1.

Broadly, the IC50 is the concentration needed to halve the response being measured. Lower therefore signals greater potency in that assay.

Holding throughout (assay): peptide competition for albumin
For experiment [1], the target named is mouse serum albumin (mouse), P07724.
Experiment [2] has as its target T1, rabbit serum albumin (rabbit), P49065.
T1 chain: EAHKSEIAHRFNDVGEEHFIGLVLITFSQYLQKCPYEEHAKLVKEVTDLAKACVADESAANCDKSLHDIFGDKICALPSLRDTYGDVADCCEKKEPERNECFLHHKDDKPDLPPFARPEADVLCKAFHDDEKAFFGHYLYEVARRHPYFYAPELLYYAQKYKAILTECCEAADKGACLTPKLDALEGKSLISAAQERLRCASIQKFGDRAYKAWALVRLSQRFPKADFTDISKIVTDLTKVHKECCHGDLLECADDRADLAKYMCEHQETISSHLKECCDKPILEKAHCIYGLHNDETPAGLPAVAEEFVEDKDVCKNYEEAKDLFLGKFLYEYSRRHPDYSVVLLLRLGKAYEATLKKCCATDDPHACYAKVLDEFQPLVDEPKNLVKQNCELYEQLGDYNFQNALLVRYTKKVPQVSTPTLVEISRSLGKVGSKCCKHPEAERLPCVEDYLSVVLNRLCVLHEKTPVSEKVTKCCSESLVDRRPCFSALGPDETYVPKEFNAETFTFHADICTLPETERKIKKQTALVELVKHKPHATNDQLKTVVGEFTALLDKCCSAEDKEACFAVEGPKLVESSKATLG

Experiment [3] addresses T2, rat serum albumin (rat), P02770.
T2 chain: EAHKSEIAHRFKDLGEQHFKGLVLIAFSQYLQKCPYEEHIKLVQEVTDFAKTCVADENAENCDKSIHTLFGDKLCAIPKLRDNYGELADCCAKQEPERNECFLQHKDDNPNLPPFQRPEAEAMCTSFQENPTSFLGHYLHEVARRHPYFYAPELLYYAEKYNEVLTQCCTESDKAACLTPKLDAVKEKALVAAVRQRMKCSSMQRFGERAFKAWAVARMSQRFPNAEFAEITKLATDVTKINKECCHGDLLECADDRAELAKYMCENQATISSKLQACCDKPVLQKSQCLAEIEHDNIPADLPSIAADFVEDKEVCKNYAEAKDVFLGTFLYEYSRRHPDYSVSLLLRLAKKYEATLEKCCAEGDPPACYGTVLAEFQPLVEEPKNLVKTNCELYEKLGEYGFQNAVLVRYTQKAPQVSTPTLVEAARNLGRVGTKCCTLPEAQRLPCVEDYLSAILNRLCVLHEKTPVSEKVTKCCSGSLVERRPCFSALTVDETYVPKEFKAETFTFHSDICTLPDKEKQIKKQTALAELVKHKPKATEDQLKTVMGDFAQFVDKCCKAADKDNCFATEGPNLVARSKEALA

Sequence of mouse serum albumin (mouse), P07724 (P07724 25-608 limits assumed): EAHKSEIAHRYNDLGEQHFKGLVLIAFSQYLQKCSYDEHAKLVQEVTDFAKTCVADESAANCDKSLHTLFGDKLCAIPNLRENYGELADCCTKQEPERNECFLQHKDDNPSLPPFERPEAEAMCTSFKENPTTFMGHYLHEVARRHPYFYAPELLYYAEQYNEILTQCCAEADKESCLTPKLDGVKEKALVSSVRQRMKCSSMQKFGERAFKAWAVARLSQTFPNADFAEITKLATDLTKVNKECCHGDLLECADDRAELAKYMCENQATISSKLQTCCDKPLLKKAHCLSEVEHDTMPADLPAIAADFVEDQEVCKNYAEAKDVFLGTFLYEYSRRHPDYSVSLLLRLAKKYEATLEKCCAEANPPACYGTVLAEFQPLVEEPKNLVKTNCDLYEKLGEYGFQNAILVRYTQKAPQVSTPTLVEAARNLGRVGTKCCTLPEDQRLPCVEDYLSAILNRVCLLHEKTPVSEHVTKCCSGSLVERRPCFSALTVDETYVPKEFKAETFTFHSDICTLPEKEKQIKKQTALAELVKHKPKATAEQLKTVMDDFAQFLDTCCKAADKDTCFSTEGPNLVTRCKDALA

For the molecule RLMEDICLARWGCLWEDD (modifications not checked) [SA13], the results for the IC50 in experiment [1], in experiment [2] and in experiment [3] were 188 nM, 3200 nM and 2480 nM, respectively.
